Assay results reported in patent US20230250154A1 (CYTONICS, published 2023).

T1: MMP1 (human, UniProt P03956 100-469, limits assumed)
T1 sequence (looked up): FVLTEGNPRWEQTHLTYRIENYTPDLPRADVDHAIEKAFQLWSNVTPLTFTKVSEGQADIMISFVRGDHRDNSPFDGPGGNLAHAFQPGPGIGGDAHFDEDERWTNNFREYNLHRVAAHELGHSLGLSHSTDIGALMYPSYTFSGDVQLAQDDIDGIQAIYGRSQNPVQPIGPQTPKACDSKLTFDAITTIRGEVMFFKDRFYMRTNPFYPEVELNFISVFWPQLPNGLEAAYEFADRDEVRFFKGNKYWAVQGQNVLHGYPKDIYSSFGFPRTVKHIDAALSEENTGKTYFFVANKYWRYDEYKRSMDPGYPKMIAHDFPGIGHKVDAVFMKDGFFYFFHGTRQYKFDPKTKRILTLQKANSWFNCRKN

T2: MMP7 (UniProt P09237 95-267, limits assumed)
T2 sequence (looked up): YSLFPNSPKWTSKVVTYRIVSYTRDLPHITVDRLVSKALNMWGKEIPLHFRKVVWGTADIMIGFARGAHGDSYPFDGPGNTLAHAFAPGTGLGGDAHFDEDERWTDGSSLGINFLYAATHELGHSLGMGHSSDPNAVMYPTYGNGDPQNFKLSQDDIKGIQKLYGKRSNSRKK

T3: MMP2 (human, UniProt P08253 110-660, limits assumed)
T3 sequence (looked up): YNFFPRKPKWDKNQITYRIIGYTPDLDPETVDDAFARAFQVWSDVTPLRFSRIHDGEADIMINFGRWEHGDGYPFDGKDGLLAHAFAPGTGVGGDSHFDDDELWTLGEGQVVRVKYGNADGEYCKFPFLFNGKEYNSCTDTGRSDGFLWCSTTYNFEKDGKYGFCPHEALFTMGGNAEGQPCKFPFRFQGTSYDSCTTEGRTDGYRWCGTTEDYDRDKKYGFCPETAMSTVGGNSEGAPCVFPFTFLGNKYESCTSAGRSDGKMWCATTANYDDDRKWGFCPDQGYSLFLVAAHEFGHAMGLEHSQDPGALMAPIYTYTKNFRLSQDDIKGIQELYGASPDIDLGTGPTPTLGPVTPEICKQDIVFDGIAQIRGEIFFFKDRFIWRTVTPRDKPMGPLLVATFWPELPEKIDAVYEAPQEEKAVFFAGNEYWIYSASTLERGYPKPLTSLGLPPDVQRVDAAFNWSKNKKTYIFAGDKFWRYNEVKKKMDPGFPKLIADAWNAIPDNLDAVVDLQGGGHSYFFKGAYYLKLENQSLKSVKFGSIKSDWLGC

T4: ADAMTS5 (human, UniProt Q9UNA0 262-622, limits assumed)
T4 sequence (looked up): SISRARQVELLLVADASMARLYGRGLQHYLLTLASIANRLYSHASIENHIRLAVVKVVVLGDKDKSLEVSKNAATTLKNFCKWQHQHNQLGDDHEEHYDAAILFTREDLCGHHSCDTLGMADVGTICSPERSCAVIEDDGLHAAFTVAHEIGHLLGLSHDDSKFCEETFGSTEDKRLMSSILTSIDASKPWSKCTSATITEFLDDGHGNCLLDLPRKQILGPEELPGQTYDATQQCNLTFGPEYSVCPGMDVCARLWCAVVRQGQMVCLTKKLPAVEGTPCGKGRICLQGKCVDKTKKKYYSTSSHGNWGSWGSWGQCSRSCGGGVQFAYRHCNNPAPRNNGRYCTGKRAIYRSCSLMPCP

T5: Cathepsin G (UniProt P08311 21-244)
T5 sequence (looked up): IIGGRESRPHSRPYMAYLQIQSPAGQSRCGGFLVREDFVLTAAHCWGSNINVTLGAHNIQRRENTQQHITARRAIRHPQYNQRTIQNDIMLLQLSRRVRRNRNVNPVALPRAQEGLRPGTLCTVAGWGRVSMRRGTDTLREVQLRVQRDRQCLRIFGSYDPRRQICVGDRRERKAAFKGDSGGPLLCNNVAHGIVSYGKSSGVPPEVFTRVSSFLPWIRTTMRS

T6: ADAMTS4 (human, UniProt O75173 213-685, limits assumed)
T6 sequence (looked up): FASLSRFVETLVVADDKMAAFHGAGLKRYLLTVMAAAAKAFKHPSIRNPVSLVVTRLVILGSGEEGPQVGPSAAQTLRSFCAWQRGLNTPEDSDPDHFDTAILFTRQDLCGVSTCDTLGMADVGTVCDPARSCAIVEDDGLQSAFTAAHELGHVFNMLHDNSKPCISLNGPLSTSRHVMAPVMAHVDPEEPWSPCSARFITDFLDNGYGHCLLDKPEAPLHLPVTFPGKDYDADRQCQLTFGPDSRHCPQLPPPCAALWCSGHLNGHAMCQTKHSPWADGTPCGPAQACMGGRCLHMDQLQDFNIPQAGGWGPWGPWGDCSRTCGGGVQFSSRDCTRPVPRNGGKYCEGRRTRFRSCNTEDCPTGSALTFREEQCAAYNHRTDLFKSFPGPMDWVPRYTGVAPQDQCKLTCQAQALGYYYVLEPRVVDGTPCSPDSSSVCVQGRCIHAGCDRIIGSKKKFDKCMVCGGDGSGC

B1: Variant A2M, bait region SEQ ID NO 14 (other)
chain: SVSGKPQYMVLVPSLLHTETTEKGCVLLSYLNETVTVSASLESVRGNRSLFTDLEAENDVLHCVAFAVPKSSSNEEVMFLTVQVKGPTQEFKKRTTVMVKNEDSLVFVQTDKSIYKPGQTVKFRVVSMDENFHPLNELIPLVYIQDPKGNRIAQWQSFQLEGGLKQFSFPLSSEPFQGSYKVVVQKKSGGRTEHPFTVEEFVLPKFEVQVTVPKIITILEEEMNVSVCGLYTYGKPVPGHVTVSICRKYSDASDCHGEDSQAFCEKFSGQLNSHGCFYQQVKTKVFQLKRKEYEMKLHTEAQIQEEGTVVELTGRQSSEITRTITKLSFVKVDSHFRQGIPFFGQVRLVDGKGVPIPNKVIFIRGNEANYYSNATTDEHGLVQFSINTTNVMGTSLTVRVNYKDRSPCYGYQWVSEEHEEAHHTAYLVFSPSKSFVHLEPMSHELPCGHTQTVQAHYILNGGTLLGLKKLSFYYLIMAKGGIVRTGTHGLLVKQEDMKGHFSISIPVKSDIAPVARLLIYAVLPTGDVIGDSAKYDVENCLANKVDLSFSPSQSLPASHAHLRVTAAPQSVCALRAVDQSVLLMKPDAELSASSVYNLLPEKDLTGFPGPLNDQDDEDCINRHNVYINGITYTPVSSTNEKDMYSFLEDMGLKAFTNSKIRKPKMCPQLEHGPEGEGEGEGIPRYLTAENFFGVSEDLVVQISELEGRGSVEEPHTKLRKYFPETWIWDLVVVNSAGVAEVGVTVPDTITEWKAGAFCLSEDAGLGISSTASLRAFQPFFVELTMPYSVIRGEAFTLKATVLNYLPKCIRVSVQLEASPAFLAVPVEKEQAPHCICANGRQTVSWAVTPKSLGNVNFTVSAEALESQELCGTEVPSVPEHGRKDTVIKPLLVEPEGLEKETTFNSLLCPSGGEVSEELSLKLPPNVVEESARASVSVLGDILGSAMQNTQNLLQMPYGCGEQNMVLFAPNIYVLDYLNETQQLTPEIKSKAIGYLNTGYQRQLNYKHYDGSYSTFGERYGRNQGNTWLTAFVLKTFAQARAYIFIDEAHITQALIWLSQRQKDNGCFRSSGSLLNNAIKGGVEDEVTLSAYITIALLEIPLTVTHPVVRNALFCLESAWKTAQEGDHGSHVYTKALLAYAFALAGNQDKRKEVLKSLNEEAVKKDNSVHWERPQKPKAPVGHFYEPQAPSAEVEMTSYVLLAYLTAQPAPTSEDLTSATNIVKWITKQQNAQGGFSSTQDTVVALHALSKYGAATFTRTGKAAQVTIQSSGTFSSKFQVDNNNRLLLQQVSLPELPGEYSMKVTGEGCVYLQTSLKYNILPEKEEFPFALGVQTLPQTCDEPKAHTSFQISLSVSYTGSRSASNMAIVDVKMVSGFIPLKPTVKMLERSNHVSRTEVSSNHVLIYLDKVSNQTLSLFFTVLQDVPVRDLKPAIVKVYDYYETDEFAIAEYNAPCSKDLGNADYKDDDDKGASHHHHHH
B2: Variant A2M, bait region SEQ ID NO 15 (other)
chain: SVSGKPQYMVLVPSLLHTETTEKGCVLLSYLNETVTVSASLESVRGNRSLFTDLEAENDVLHCVAFAVPKSSSNEEVMFLTVQVKGPTQEFKKRTTVMVKNEDSLVFVQTDKSIYKPGQTVKFRVVSMDENFHPLNELIPLVYIQDPKGNRIAQWQSFQLEGGLKQFSFPLSSEPFQGSYKVVVQKKSGGRTEHPFTVEEFVLPKFEVQVTVPKIITILEEEMNVSVCGLYTYGKPVPGHVTVSICRKYSDASDCHGEDSQAFCEKFSGQLNSHGCFYQQVKTKVFQLKRKEYEMKLHTEAQIQEEGTVVELTGRQSSEITRTITKLSFVKVDSHFRQGIPFFGQVRLVDGKGVPIPNKVIFIRGNEANYYSNATTDEHGLVQFSINTTNVMGTSLTVRVNYKDRSPCYGYQWVSEEHEEAHHTAYLVFSPSKSFVHLEPMSHELPCGHTQTVQAHYILNGGTLLGLKKLSFYYLIMAKGGIVRTGTHGLLVKQEDMKGHFSISIPVKSDIAPVARLLIYAVLPTGDVIGDSAKYDVENCLANKVDLSFSPSQSLPASHAHLRVTAAPQSVCALRAVDQSVLLMKPDAELSASSVYNLLPEKDLTGFPGPLNDQDDEDCINRHNVYINGITYTPVSSTNEKDMYSFLEDMGLKAFTNSKIRKPKMCPQLEHGPEGEGEGEGIPENFFGVSEDLVVQISELEGRGSRYLTAVEEPHTKLRKYFPETWIWDLVVVNSAGVAEVGVTVPDTITEWKAGAFCLSEDAGLGISSTASLRAFQPFFVELTMPYSVIRGEAFTLKATVLNYLPKCIRVSVQLEASPAFLAVPVEKEQAPHCICANGRQTVSWAVTPKSLGNVNFTVSAEALESQELCGTEVPSVPEHGRKDTVIKPLLVEPEGLEKETTFNSLLCPSGGEVSEELSLKLPPNVVEESARASVSVLGDILGSAMQNTQNLLQMPYGCGEQNMVLFAPNIYVLDYLNETQQLTPEIKSKAIGYLNTGYQRQLNYKHYDGSYSTFGERYGRNQGNTWLTAFVLKTFAQARAYIFIDEAHITQALIWLSQRQKDNGCFRSSGSLLNNAIKGGVEDEVTLSAYITIALLEIPLTVTHPVVRNALFCLESAWKTAQEGDHGSHVYTKALLAYAFALAGNQDKRKEVLKSLNEEAVKKDNSVHWERPQKPKAPVGHFYEPQAPSAEVEMTSYVLLAYLTAQPAPTSEDLTSATNIVKWITKQQNAQGGFSSTQDTVVALHALSKYGAATFTRTGKAAQVTIQSSGTFSSKFQVDNNNRLLLQQVSLPELPGEYSMKVTGEGCVYLQTSLKYNILPEKEEFPFALGVQTLPQTCDEPKAHTSFQISLSVSYTGSRSASNMAIVDVKMVSGFIPLKPTVKMLERSNHVSRTEVSSNHVLIYLDKVSNQTLSLFFTVLQDVPVRDLKPAIVKVYDYYETDEFAIAEYNAPCSKDLGNADYKDDDDKGASHHHHHH

Assays:
Test in all cases: cell-based or functional assay
MMP1 = biological target: T1, MMP1
Elastase = biological target: Elastase
MMP3 = MMP3 (human, UniProt P08254 100-477, limits assumed)
MMP7 = biological target: T2, MMP7
MMP13 = MMP13 (human, UniProt P45452 104-471, limits assumed)
MMP2 = biological target: T3, MMP2
ADAMTS5 = biological target: T4, ADAMTS5
MMP8 = MMP8 (human, UniProt P22894 101-467, limits assumed)
MMP9 = MMP9 (human, UniProt P14780 107-707, limits assumed)
Cathepsin G = biological target: T5, Cathepsin G
ADAMTS4 = biological target: T6, ADAMTS4

Sequence of MMP8 (P22894 101-467 limits assumed): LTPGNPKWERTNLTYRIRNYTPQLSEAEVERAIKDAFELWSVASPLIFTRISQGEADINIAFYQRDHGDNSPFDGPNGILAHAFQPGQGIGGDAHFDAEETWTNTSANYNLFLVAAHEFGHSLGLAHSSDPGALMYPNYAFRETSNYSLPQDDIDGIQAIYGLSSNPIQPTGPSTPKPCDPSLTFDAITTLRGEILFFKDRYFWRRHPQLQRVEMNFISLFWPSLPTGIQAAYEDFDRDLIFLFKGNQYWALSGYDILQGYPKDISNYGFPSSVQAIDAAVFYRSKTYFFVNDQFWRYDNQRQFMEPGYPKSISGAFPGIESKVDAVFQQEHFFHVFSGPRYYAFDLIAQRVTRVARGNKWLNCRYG
Sequence of MMP9 (P14780 107-707 limits assumed): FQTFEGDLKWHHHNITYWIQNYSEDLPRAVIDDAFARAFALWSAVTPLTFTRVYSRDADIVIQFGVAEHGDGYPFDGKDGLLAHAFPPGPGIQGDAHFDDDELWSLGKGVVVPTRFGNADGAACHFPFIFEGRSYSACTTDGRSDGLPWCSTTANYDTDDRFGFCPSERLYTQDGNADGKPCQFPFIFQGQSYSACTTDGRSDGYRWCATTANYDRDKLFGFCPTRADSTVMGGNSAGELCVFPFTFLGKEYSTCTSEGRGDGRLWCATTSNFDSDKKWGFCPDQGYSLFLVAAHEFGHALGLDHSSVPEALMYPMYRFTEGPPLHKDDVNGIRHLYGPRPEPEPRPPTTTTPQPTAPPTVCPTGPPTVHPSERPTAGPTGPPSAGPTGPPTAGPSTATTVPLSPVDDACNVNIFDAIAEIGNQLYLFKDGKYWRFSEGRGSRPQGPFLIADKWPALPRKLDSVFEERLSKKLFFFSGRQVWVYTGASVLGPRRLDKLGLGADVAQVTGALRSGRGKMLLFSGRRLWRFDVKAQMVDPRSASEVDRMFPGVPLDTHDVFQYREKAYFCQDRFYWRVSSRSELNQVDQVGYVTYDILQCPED
Sequence of MMP3 (P08254 100-477 limits assumed): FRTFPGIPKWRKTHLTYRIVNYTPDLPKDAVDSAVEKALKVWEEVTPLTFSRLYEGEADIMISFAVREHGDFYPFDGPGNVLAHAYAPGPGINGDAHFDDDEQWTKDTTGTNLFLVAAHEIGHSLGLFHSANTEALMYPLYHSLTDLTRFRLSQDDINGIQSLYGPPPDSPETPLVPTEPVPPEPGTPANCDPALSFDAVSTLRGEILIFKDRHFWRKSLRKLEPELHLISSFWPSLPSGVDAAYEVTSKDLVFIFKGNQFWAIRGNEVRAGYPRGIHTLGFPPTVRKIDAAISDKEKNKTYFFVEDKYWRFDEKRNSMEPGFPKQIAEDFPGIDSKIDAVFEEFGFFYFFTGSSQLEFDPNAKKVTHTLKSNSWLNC

Binder	Protease Inhibition (% of WT) (MMP1)	Protease Inhibition (% of WT) (Elastase)	Protease Inhibition (% of WT) (MMP3)	Protease Inhibition (% of WT) (MMP7)	Protease Inhibition (% of WT) (MMP13)	Protease Inhibition (% of WT) (MMP2)	Protease Inhibition (% of WT) (ADAMTS5)	Protease Inhibition (% of WT) (MMP8)	Protease Inhibition (% of WT) (MMP9)	Protease Inhibition (% of WT) (Cathepsin G)	Protease Inhibition (% of WT) (ADAMTS4)
B1	60 % of WT	67 % of WT	169 % of WT	61 % of WT	66 % of WT	10 % of WT	105 % of WT	39 % of WT	14 % of WT	99 % of WT	236 % of WT
B2	116 % of WT	115 % of WT	40 % of WT	157 % of WT	143 % of WT	59 % of WT	183 % of WT	77 % of WT	41 % of WT	139 % of WT	83 % of WT
